Patent US20220251235A1 (published 2022)

How the values were obtained:
[1] = biological target: T1, MAGEA10 peptide on HLA-A*02:01 (human); test: multimer staining
T1 peptide: SLLKFLAKV

[2] = biological target: T2, MAGEA10 peptide on HLA-A*02:04 (human); test: cytokine release
T2 peptide: SLLKFLAKV

[3] = biological target: T3, peptide on HLA-A*02:01 (human); test: cytokine release
T3 peptide: KLYGLDWAEL

B1: MAGE-A10^SLL-TCR (TCR, V domains shown)
Valpha: DQQVKQNSPSLSVQEGRISILNCDYTNSMFDYFLWYKKYPAEGPTFLISISSIKDKNEDGRFTVFLNKSAKHLSLHIVPSQPGDSAVYFCAANSNSGYALNFGKGTSLLVTP
Vbeta: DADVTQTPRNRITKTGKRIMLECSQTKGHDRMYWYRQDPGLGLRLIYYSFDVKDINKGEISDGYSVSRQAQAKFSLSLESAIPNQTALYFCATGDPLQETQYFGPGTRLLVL
Question: Does B1 bind [1]?
Answer: recognises

Question: Does B1 bind [2]?
Answer: recognises

Question: Does B1 bind [3]?
Answer: no recognition
